The target of experiment [1] is MED14-NTD+H+M+MED26, 16-subunit recombinant human core Mediator with f:MED14-NTD (1-760) (human) (UniProt O60244).
Experiment [2] has the same target. Kind of experiment: co-IP; competition: MED14-NTD+H+M+MED26 on anti-MED30 beads with Pol II and recombinant RPB1 as competitor, equal amounts of His:RPB1 or up to 10-fold more f:RPB1 or f:ΔCTD RPB1 than Pol II; western blot. Background: Immunoblotting shows a protein as a band on a membrane.

A value given as a limit tells only on which side of the number the result lay.

In the case of “RNA polymerase II (Pol II), Gdown1-free, purified from HeLa nuclear extract (from UniProt P24928 1-1970; P30876 1-1174; P19387 1-275; O15514 1-142; P19388 1-210; P61218 1-127; P62487 1-172; P52434 1-150; P36954 1-125; P62875 1-67; P52435 1-117; P53803 1-58) (complex)”, the basal in vitro transcription from AdML core promoter templates in Mediator-depleted HeLa NE, 50 nM complex, against Mediator-deficient controls in experiment [1] was more than 15 fold.

For “recombinant His:RPB1 (from UniProt P24928 1-1970) (natural protein)”, the percent reversal of the MED14-NTD+H+M+MED26-Pol II interaction at a 1:1 ratio in experiment [2] is less than 50%.

Source of the values: PMC12719649.
